From patent US20260207767A1 (ANAVEON, published 2026)

T1: IL-2R CD122-CD132 on Jurkat-PD1+CD122+ cells (UniProt P14784 27-551; P31785 23-369)
T1 sequence (looked up) 1: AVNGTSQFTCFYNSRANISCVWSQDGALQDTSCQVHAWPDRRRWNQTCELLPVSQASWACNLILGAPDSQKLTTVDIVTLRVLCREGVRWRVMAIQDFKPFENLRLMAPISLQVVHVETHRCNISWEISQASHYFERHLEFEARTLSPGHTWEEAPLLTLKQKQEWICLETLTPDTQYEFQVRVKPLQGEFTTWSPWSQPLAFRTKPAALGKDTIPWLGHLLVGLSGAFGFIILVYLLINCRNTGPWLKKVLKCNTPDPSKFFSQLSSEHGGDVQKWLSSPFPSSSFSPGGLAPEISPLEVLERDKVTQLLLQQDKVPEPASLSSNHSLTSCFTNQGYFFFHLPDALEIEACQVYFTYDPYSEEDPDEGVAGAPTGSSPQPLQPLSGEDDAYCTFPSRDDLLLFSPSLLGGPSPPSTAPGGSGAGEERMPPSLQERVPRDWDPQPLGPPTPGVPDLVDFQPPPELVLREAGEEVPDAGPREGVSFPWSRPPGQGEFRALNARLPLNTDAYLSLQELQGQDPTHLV
T1 sequence (looked up) 2: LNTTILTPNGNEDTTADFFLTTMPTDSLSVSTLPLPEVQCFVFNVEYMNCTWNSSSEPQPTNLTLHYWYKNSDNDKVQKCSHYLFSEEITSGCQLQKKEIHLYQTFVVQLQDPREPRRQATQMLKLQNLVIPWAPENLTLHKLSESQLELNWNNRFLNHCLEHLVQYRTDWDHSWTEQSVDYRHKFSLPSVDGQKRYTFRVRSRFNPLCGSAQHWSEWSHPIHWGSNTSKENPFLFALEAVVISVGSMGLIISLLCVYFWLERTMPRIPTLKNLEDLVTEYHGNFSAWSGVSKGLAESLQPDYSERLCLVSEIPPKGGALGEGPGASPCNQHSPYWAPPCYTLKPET


target: T1, IL-2R CD122-CD132 on Jurkat-PD1+CD122+ …; test: cell-based or functional assay

Binder	EC50 value for pSTAT5 induction, Jurkat-PD-1+CD122+ cells
JLI141 (bispecific antibody, human IgG1, lambda, L234A L235A) heavy 1: EVQLLESGGGLVQPGGSLRLSCAASGFTFSINAMTWVRQAPGKGLEWVSTISGSGFSTYYADSLKGRFTISRDNSKNTLYLQMNSLRAEDTAVYYCAKEVYGDYWGQGTLVTVSSASTKGPSVFPLAPSSKSTSGGTAALGCLVKDYFPEPVTVSWNSGALTSGVHTFPAVLQSSGLYSLSSVVTVPSSSLGTQTYICNVNHKPSNTKVDKRVEPKSCDKTHTCPPCPAPEAAGGPSVFLFPPKPKDTLMISRTPEVTCVVVDVSHEDPEVKFNWYVDGVEVHNAKTKPREEQYNSTYRVVSVLTVLHQDWLNGKEYKCKVSNKALAAPIEKTISKAKGQPREPQVYTLPPSREEMTKNQVSLTCLVKGFYPSDIAVEWESNGQPENNYKTTPPVLDSDGSFFLTSKLTVDKSRWQQGNVFSCSVMHEALHNHYTQKSLSLSPGK light: not shown heavy 2: AIRLTQSPSSFSASTGDRVTITCKASQSVDYGGGNFHLRPRDLISNINVIVLELKGSETTFMCEYADETATIVEFLNRWITFSQSIISTLTPTSSSTKKTQLQLEHLLLDLQMILNGINNYKNPKLTRMLTFKFYMPKKATELKHLQCLEEELKPLEEVLNLAQSKGGGGDSYMNWYQQKPGKAPKLLIYAASNLESGVPSRFSGSGSGTDFTLTISSLQSEDFATYYCQQSNEDPYTFGGGTKVEIKGGGGSGGGGSGGGGSEVQLVQSGAEVKKPGESLKISCKGSGYAFTNYLIEWVRQMPGKGLEWMGVINPGSGGTNYNEKFKGQVTISADKSISTAYLQWSSLKASDTAMYYCARWRGEGYYAYFDVWGQGTTVTVSSGGGGSGGGGSEVQLLESGGGLVQPGGSLRLSCAASGFTFSINAMTWVRQAPGKGLEWVSTISGSGFSTYYADSLKGRFTISRDNSKNTLYLQMNSLRAEDTAVYYCAKEVYGDYWGQGTLVTVSSASTKGPSVFPLAPSSKSTSGGTAALGCLVKDYFPEPVTVSWNSGALTSGVHTFPAVLQSSGLYSLSSVVTVPSSSLGTQTYICNVNHKPSNTKVDKRVEPKSCDKTHTCPPCPAPEAAGGPSVFLFPPKPKDTLMISRTPEVTCVVVDVSHEDPEVKFNWYVDGVEVHNAKTKPREEQYNSTYRVVSVLTVLHQDWLNGKEYKCKVSNKALAAPIEKTISKAKGQPREPQVYTLPPSREEMTKNQVSLYCLVKGFYPSDIAVEWESNGQPENNYKTTPPVLDSDGSFFLYSKLTVDKSRWQQGNVFSCSVMHEALHNHYTQKSLSLSPGK	0.2 nM
GQM289 (bispecific antibody, human IgG1, kappa, lambda, L234A L235A) heavy 1: EVQLLESGGGLVQPGGSLRLSCAASGFTFSINAMTWVRQAPGKGLEWVSTISGSGFSTYYADSLKGRFTISRDNSKNTLYLQMNSLRAEDTAVYYCAKEVYGDYWGQGTLVTVSSASTKGPSVFPLAPSSKSTSGGTAALGCLVKDYFPEPVTVSWNSGALTSGVHTFPAVLQSSGLYSLSSVVTVPSSSLGTQTYICNVNHKPSNTKVDKRVEPKSCDKTHTCPPCPAPEAAGGPSVFLFPPKPKDTLMISRTPEVTCVVVDVSHEDPEVKFNWYVDGVEVHNAKTKPREEQYNSTYRVVSVLTVLHQDWLNGKEYKCKVSNKALAAPIEKTISKAKGQPREPQVYTLPPSREEMTKNQVSLTCLVKGFYPSDIAVEWESNGQPENNYKTTPPVLDSDGSFFLTSKLTVDKSRWQQGNVFSCSVMHEALHNHYTQKSLSLSPGK light 1: not shown heavy 2: EVQLVQSGAEVKKPGESLKISCKGSGYAFTNYLIEWVRQMPGKGLEWMGVINPGSGGTNYNEKFKGQVTISADKSISTAYLQWSSLKASDTAMYYCARWRGEGYYAYFDVWGQGTTVTVSSASTKGPSVFPLAPSSKSTSGGTAALGCLVKDYFPEPVTVSWNSGALTSGVHTFPAVLQSSGLYSLSSVVTVPSSSLGTQTYICNVNHKPSNTKVDKRVEPKSCDKTHTCPPCPAPEAAGGPSVFLFPPKPKDTLMISRTPEVTCVVVDVSHEDPEVKFNWYVDGVEVHNAKTKPREEQYNSTYRVVSVLTVLHQDWLNGKEYKCKVSNKALAAPIEKTISKAKGQPREPQVYTLPPSREEMTKNQVSLYCLVKGFYPSDIAVEWESNGQPENNYKTTPPVLDSDGSFFLYSKLTVDKSRWQQGNVFSCSVMHEALHNHYTQKSLSLSPGK light 2: not shown	0.22 nM

The remaining lines, values ahead:

EC50 value for pSTAT5 induction, Jurkat-PD-1+CD122+ cells	Binder
0.24 nM	LTJ498 (bispecific antibody, human IgG1, lambda, L234A L235A) heavy 1: EVQLLESGGGLVQPGGSLRLSCAASGFTFSINAMTWVRQAPGKGLEWVSTISGSGFSTYYADSLKGRFTISRDNSKNTLYLQMNSLRAEDTAVYYCAKEVYGDYWGQGTLVTVSSASTKGPSVFPLAPSSKSTSGGTAALGCLVKDYFPEPVTVSWNSGALTSGVHTFPAVLQSSGLYSLSSVVTVPSSSLGTQTYICNVNHKPSNTKVDKRVEPKSCDKTHTCPPCPAPEAAGGPSVFLFPPKPKDTLMISRTPEVTCVVVDVSHEDPEVKFNWYVDGVEVHNAKTKPREEQYNSTYRVVSVLTVLHQDWLNGKEYKCKVSNKALAAPIEKTISKAKGQPREPQVYTLPPSREEMTKNQVSLTCLVKGFYPSDIAVEWESNGQPENNYKTTPPVLDSDGSFFLTSKLTVDKSRWQQGNVFSCSVMHEALHNHYTQKSLSLSPGK light: not shown heavy 2: AIRLTQSPSSFSASTGDRVTITCKASQSVDYGGGNFHLRPRDLISNINVIVLELKGSETTFMCEYADETATIVEFLNRWITFSQSIISTLTPTSSSTKKTQLQLEHLLLDLQMILNGINNYKNPKLTRMLTFKFYMPKKATELKHLQCLEEELKPLEEVLNLAQSKGGGGDSYMNWYQQKPGKAPKLLIYAASNLESGVPSRFSGSGSGTDFTLTISSLQSEDFATYYCQQSNEDPYTFGGGTKVEIKGGGGSGGGGSGGGGSEVQLVQSGAEVKKPGESLKISCKGSGYAFTNYLIEWVRQMPGKGLEWMGVINPGSGGTNYNEKFKGQVTISADKSISTAYLQWSSLKASDTAMYYCARWRGEGYYAYFDVWGQGTTVTVSSGGGGSGGGGSEVQLLESGGGLVQPGGSLRLSCAASGFTFSINAMTWVRQAPGKGLEWVSTISGSGFSTYYADSLKGRFTISRDNSKNTLYLQMNSLRAEDTAVYYCAKEVYGDYWGQGTLVTVSSASTKGPSVFPLAPSSKSTSGGTAALGCLVKDYFPEPVTVSWNSGALTSGVHTFPAVLQSSGLYSLSSVVTVPSSSLGTQTYICNVNHKPSNTKVDKRVEPKSCDKTHTCPPCPAPEAAGGPSVFLFPPKPKDTLMISRTPEVTCVVVDVSHEDPEVKFNWYVDGVEVHNAKTKPREEQYNSTYRVVSVLTVLHQDWLNGKEYKCKVSNKALAAPIEKTISKAKGQPREPQVYTLPPSREEMTKNQVSLYCLVKGFYPSDIAVEWESNGQPENNYKTTPPVLDSDGSFFLYSKLTVDKSRWQQGNVFSCSVMHEALHNHYTQKSLSLSPGK
0.27 nM	XWY176 (bispecific antibody, human IgG1, kappa, lambda, L234A L235A) heavy 1: EVQLLESGGGLVQPGGSLRLSCAASGFTFSINAMTWVRQAPGKGLEWVSTISGSGFSTYYADSLKGRFTISRDNSKNTLYLQMNSLRAEDTAVYYCAKEVYGDYWGQGTLVTVSSASTKGPSVFPLAPSSKSTSGGTAALGCLVKDYFPEPVTVSWNSGALTSGVHTFPAVLQSSGLYSLSSVVTVPSSSLGTQTYICNVNHKPSNTKVDKRVEPKSCDKTHTCPPCPAPEAAGGPSVFLFPPKPKDTLMISRTPEVTCVVVDVSHEDPEVKFNWYVDGVEVHNAKTKPREEQYNSTYRVVSVLTVLHQDWLNGKEYKCKVSNKALAAPIEKTISKAKGQPREPQVYTLPPSREEMTKNQVSLTCLVKGFYPSDIAVEWESNGQPENNYKTTPPVLDSDGSFFLTSKLTVDKSRWQQGNVFSCSVMHEALHNHYTQKSLSLSPGK light 1: not shown heavy 2: EVQLVQSGAEVKKPGESLKISCKGSGYAFTNYLIEWVRQMPGKGLEWMGVINPGSGGTNYNEKFKGQVTISADKSISTAYLQWSSLKASDTAMYYCARWRGEGYYAYFDVWGQGTTVTVSSASTKGPSVFPLAPSSKSTSGGTAALGCLVKDYFPEPVTVSWNSGALTSGVHTFPAVLQSSGLYSLSSVVTVPSSSLGTQTYICNVNHKPSNTKVDKRVEPKSCDKTHTCPPCPAPEAAGGPSVFLFPPKPKDTLMISRTPEVTCVVVDVSHEDPEVKFNWYVDGVEVHNAKTKPREEQYNSTYRVVSVLTVLHQDWLNGKEYKCKVSNKALAAPIEKTISKAKGQPREPQVYTLPPSREEMTKNQVSLYCLVKGFYPSDIAVEWESNGQPENNYKTTPPVLDSDGSFFLYSKLTVDKSRWQQGNVFSCSVMHEALHNHYTQKSLSLSPGK light 2: not shown
43.9 nM	YPW986 (bispecific antibody, human IgG1, kappa, L234A L235A) heavy 1: EVQLLESGGGLVQPGGSLRLSCAASGFTFSINAMTWVRQAPGKGLEWVSTISGSGFSTYYADSLKGRFTISRDNSKNTLYLQMNSLRAEDTAVYYCAKEVYGDYWGQGTLVTVSSASVAAPSVFIFPPSDEQLKSGTASVVCLLNNFYPREAKVQWKVDNALQSGNSQESVTEQDSKDSTYSLSSTLTLSKADYEKHKVYACEVTHQGLSSPVTKSFNRGECDKTHTCPPCPAPEAAGGPSVFLFPPKPKDTLMISRTPEVTCVVVDVSHEDPEVKFNWYVDGVEVHNAKTKPREEQYNSTYRVVSVLTVLHQDWLNGKEYKCKVSNKALAAPIEKTISKAKGQPREPQVYTLPPSREEMTKNQVSLTCLVKGFYPSDIAVEWESNGQPENNYKTTPPVLDSDGSFFLTSKLTVDKSRWQQGNVFSCSVMHEALHNHYTQKSLSLSPGK light 1: RSVLTQPPSASGTPGQRVSISCSGASSNIGSQSVFWYQQLPGTAPKLLIYSNNQRPSGVPDRFSGSKSGTSASLAISGLRSEDEADYYCAAWDDSLSIWVFGGGTKLTVLSSASTKGPSVFPLAPSSKSTSGGTAALGCLVKDYFPEPVTVSWNSGALTSGVHTFPAVLQSSGLYSLSSVVTVPSSSLGTQTYICNVNHKPSNTKVDKRVEPKSC heavy 2: EVQLVQSGAEVKKPGESLKISCKGSGYAFTNYLIEWVRQMPGKGLEWMGVINPGSGGTNYNEKFKGQVTISADKSISTAYLQWSSLKASDTAMYYCARWRGEGYYAYFDVWGQGTTVTVSSASTKGPSVFPLAPSSKSTSGGTAALGCLVKDYFPEPVTVSWNSGALTSGVHTFPAVLQSSGLYSLSSVVTVPSSSLGTQTYICNVNHKPSNTKVDKRVEPKSCDKTHTCPPCPAPEAAGGPSVFLFPPKPKDTLMISRTPEVTCVVVDVSHEDPEVKFNWYVDGVEVHNAKTKPREEQYNSTYRVVSVLTVLHQDWLNGKEYKCKVSNKALAAPIEKTISKAKGQPREPQVYTLPPSREEMTKNQVSLYCLVKGFYPSDIAVEWESNGQPENNYKTTPPVLDSDGSFFLYSKLTVDKSRWQQGNVFSCSVMHEALHNHYTQKSLSLSPGK light 2: not shown
